# ± gives the uncertainty stated by the source.
# Assay: amyloid nucleation score (Sup35N fusion, yeast selection) (log enrichment); library NNK3; higher = more nucleation; inactive = no reads after selection
# Outline: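 Libraries of peptides of 20 random codons fused to Sup35N were expressed in psi-negative yeast and induced 24 hours with 100 μM copper sulfate. Selection was 7 days at 30°C on medium lacking adenine and uracil, and plasmid inserts were Illumina-sequenced before and after selection. Nucleation score is the DiMSum log enrichment of output over input reads, centred on the mode score of non-aggregating sequences, and sequences with under 100 input reads were left out.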
row,Substance,amyloid nucleation score
1,TLLLIVDNGVNPSLKEMMLL,inactive
2,SLWRLMSETVGLKKMQ,inactive
3,HKMRRSLQFNEMGLFSPKVY,inactive
4,QPLHCK,inactive
5,FAHEVLYSANT,inactive
6,EVVAAYHPATDTSDRERKAL,inactive
7,VGPALNVVSWELV,inactive
8,EWKVLLPNLLYPSYYAQNR,inactive
9,FFVIRLNPTSLNCVFSWYLL,inactive
10,YGIYWSETFRNSLCKIVNIL,0.66 ± 0.24
11,LQFPPNLSMLCKVTQPSNNW,inactive
12,FWSLNIQGSNYFLHIVNIGR,inactive
13,AGIRYTNYFSSMGSIGGDGV,inactive
14,VNNVQCLYDAVREDSRWYWG,inactive
15,KITSRGCN,inactive
16,GCFGPLCDRLSEWMENCWKK,0.392 ± 0.35
17,KRISDRIFCFCLKHGVGLFG,inactive
18,LEFRYPAMWLKFSLYVWTLI,inactive
19,TVSTNDFSL,-0.61 ± 0.9
20,YNGYALRF,inactive
21,VCVKYAMTPVWSAGAARFHK,inactive
22,FSTFRLSRLCHRDRRSHARQ,inactive
23,RLARADNILLGRNSVSSSVK,inactive

row,Substance,amyloid nucleation score
1,DDRLCLGASENVWGFTVVRR,inactive
2,CYLFVLL,inactive
3,LGNRQVRNLATYPDNYLTCT,inactive
4,SITSAPSLYMSGFTKVCSGE,inactive
5,LIDMVVFNYKLVIRVRKGSL,inactive
6,RSTVHRYSCDNCVEVIISKQ,1.18 ± 0.12
7,VMRPIPMSLYLNNFNES,inactive
8,LIELSSSPRSYGHQVLM,inactive
9,TVYYTLFATIWMLGVFFLNN,inactive
10,RDTGPPMFWREAVSRYR,inactive
11,SYRYNRLYHWVHDLLCSTLV,inactive
12,WLIFELIVSELSTRHHKALD,inactive
13,PAMVCNPTQATRGKSRMVPL,inactive
14,GFAMVLSWLKSGFPISRDLR,inactive
15,LNTNWCSSK,inactive
16,MGEMRMLVTVT,inactive
17,FMYILWRVSKKLFIALMWFR,inactive
18,WYLIFGCRASWGSWR,-0.039 ± 0.61
19,IMTSFPGEFPLSLHNMCASC,inactive
20,LFYFVWRVYKFILWSG,inactive
21,NRMLNYIFDTTS,inactive
22,ASGLDIISSSNKLH,inactive
23,LVLSWVITEVMDRVWRGSRG,inactive

row,Substance,amyloid nucleation score
1,YRNVGHVCFDVEYPRVLFFA,inactive
2,CTLMIFGCN,inactive
3,IFNWFDWIFRFSTTSPECLT,inactive
4,ILSITC,inactive
5,HKYLWCIPWETLCKTWPFFS,inactive
6,NLMEHSIGLYAYYYSLNDCS,inactive
7,VRNYGLDFRRACGWT,inactive
8,YFCLQNFRVFLGRYMIHNYL,inactive
9,VFAMLLDMFDCARQWPAIPL,inactive
10,LFWPICFHNMTFVLYTSLLN,inactive
11,VSLKYSTKKPWLKTDHPCWI,inactive
12,CNNRVVWLKHGSLSREDGVQ,inactive
13,SSVKMTDLRH,inactive
14,YVWIDTMGL,inactive
15,RRIFCLLVANDRLSMRVKCP,inactive
16,IYGHCCIISAWVWGNESLVL,inactive
17,MCKRGRDCGLLFVSTDDLGD,inactive
18,INAQS,inactive
19,ELLVVFEESIVINFLDANIW,0.674 ± 0.2
20,TLGMLHRNWYYLLF,inactive
21,AWKTLAHRQSWGGCNRA,inactive
22,EFWLISFQSQLSFYCDFRYD,inactive
23,DIRCGFLHKQGPLTMRATEQ,inactive

row,Substance,amyloid nucleation score
1,LVVLLRFCGRAPGIGQSMGD,inactive
2,PSSKFVGGIS,inactive
3,TNYWNHVVYVTGNVCDP,inactive
4,KISLISTNCLYMVFPYRYSR,2.13 ± 0.06
5,WCAISICQLLKRQWYLGSYV,inactive
6,RYRIPTSFL,inactive
7,YERSRMSVWRNT,inactive
8,GSGYVTGGSSLLRARWSRGG,1.26 ± 0.17
9,LAINIFWLEDRCSPIGCNAG,inactive
10,FTPLNDDNKCVVSYEY,inactive
11,AGSPCWSNHHYMTKRDCRFS,inactive
12,FSVGEFCR,inactive
13,SYMPGNLSGLWAHLLMEKNC,inactive
14,GRSLVYR,inactive
15,KLGGLSMRTSYIMPGRTFTS,inactive
16,DAETPLHSFGMQLLGRASMR,inactive
17,GNKMVLVW,inactive
18,VGVMLYWVKEFFVL,inactive
19,SYNILHDVSQLGTRQPPLE,inactive
20,WVLEE,inactive
21,FRSVSLWSSN,inactive
22,VSKYIVSHIASSWSWGQWVL,inactive
23,DSLILWHGDANCSRLGYRGH,inactive

row,Substance,amyloid nucleation score
1,PVYCDCSYVREGVTITITIH,inactive
2,VFWYKYVFSCNIIQGLLRMK,inactive
3,LYAYVQVIGDQA,inactive
4,CAESIRHRRP,inactive
5,RRLSM,inactive
6,WGWMSTIKIVG,inactive
7,VQWSEMTAFTGFFSVYISSG,inactive
8,FDYSIGL,inactive
9,FGQYWKRCTTCLCGWPTGIG,inactive
10,LFRVDRPTNCGPYFAYHEYT,inactive
11,MSSLDARIMSHYVYMVIDPV,inactive
12,NFGTWDQSVLSLRMKLTCVP,inactive
13,NFKLLLTSPWYATV,inactive
14,TTVMLTKLYMFEGPNRFTAL,0.961 ± 0.084
15,YCQVGINWFYGAGMKGYILS,inactive
16,RMDETWNITRKNWQDSY,inactive
17,GLCRNCF,inactive
18,NYVLPIVCL,inactive
19,NVIRISICRSMRMGLKGCIF,0.732 ± 0.19
20,VSYNFGYAYECLGYVRFV,0.572 ± 0.36
21,FIRARLLRHHTLARNAYVLR,inactive
22,FLHPLSLDSNFLNSVCHFKK,inactive
23,NTDFYVVVDRIMFRLLHGFK,inactive

row,Substance,amyloid nucleation score
1,SSKASSFVFMACGPGTEVIG,inactive
2,VDSSGLV,inactive
3,ACSRRERY,inactive
4,FGANHKQVSWWDRMLSGTVR,inactive
5,WTQAGQIRMRKRSR,inactive
6,RYDYFLFLIFSFLCTVDPMV,-0.211 ± 0.31
7,RTLQVWHDWVVG,-0.555 ± 0.69
8,LTSESSDEICGGRATSVLCL,inactive
9,DDDEVASCLPYWRCAALKSG,inactive
10,LKTVSMSYD,inactive
11,YSVLLLLDSYGAWSGAGGE,inactive
12,RLGWFYRNIYLLTVEVGRGR,inactive
13,VVWLDNKDVLTWHARCLCPM,inactive
14,KFCISSKDKIF,inactive
15,CTLGHCMKLSMSSFPAVGKV,inactive
16,SFSMKKGQHQLIS,inactive
17,MIKVLCTLFIDWAVAYVICH,inactive
18,YTVILRVRGSMSAMQSMKFS,inactive
19,YRPSIRLTGCLSSLYTLFYG,1.92 ± 0.062
20,QITRLPSNYVYETWSEKVFY,inactive
21,MRRCDVWKIYGYMLSPPLPR,inactive
22,RYIFNQANSMVQYRFVYDVR,1.72 ± 0.069
23,VHVYCNWKFRDEIRANSTRR,inactive

row,Substance,amyloid nucleation score
1,TKHETSLVCRLLTETRFKNI,inactive
2,LISTWNMAYSLSLIMMDHHS,inactive
3,RSCSLWVY,inactive
4,NISSVVLGGGLRVGARRI,inactive
5,FGEYVIRMSNCTLPKIMVIP,inactive
6,FTLFMDRVIFASSVDSTEIL,inactive
7,DIVSLVNAFMISTIYTVTRK,inactive
8,TDYLFLSKWVTLCLSVWCNY,-0.084 ± 0.3
9,SAMCICLICALGVCPTMDGA,2.5 ± 0.073
10,ECAYWMILLGLDYNGHPNRP,inactive
11,IALLLQSQLMRHGGFASWNR,inactive
12,NVNVNAFKMSLELRAR,inactive
13,FWNRWVVQVDSLSMRMSRVA,inactive
14,HDVDLGWFSRYGIFRALRRE,inactive
15,EPRRLRITCEYTVNRRLSDE,inactive
16,AKDMEGGQHNDGSDRRNERW,inactive
17,LCSLCNSLAQWRYNSEWLYT,inactive
18,LAQSQNVVEARINSPWWDSP,inactive

# Source: the supplement of paper PMC12042874
